Measured values as given in patent US20060057623A1.

Target: p300 (UniProt Q09472)
Assay: cell-based or functional assay

p300, sequence (Q09472 2-2414 limits assumed): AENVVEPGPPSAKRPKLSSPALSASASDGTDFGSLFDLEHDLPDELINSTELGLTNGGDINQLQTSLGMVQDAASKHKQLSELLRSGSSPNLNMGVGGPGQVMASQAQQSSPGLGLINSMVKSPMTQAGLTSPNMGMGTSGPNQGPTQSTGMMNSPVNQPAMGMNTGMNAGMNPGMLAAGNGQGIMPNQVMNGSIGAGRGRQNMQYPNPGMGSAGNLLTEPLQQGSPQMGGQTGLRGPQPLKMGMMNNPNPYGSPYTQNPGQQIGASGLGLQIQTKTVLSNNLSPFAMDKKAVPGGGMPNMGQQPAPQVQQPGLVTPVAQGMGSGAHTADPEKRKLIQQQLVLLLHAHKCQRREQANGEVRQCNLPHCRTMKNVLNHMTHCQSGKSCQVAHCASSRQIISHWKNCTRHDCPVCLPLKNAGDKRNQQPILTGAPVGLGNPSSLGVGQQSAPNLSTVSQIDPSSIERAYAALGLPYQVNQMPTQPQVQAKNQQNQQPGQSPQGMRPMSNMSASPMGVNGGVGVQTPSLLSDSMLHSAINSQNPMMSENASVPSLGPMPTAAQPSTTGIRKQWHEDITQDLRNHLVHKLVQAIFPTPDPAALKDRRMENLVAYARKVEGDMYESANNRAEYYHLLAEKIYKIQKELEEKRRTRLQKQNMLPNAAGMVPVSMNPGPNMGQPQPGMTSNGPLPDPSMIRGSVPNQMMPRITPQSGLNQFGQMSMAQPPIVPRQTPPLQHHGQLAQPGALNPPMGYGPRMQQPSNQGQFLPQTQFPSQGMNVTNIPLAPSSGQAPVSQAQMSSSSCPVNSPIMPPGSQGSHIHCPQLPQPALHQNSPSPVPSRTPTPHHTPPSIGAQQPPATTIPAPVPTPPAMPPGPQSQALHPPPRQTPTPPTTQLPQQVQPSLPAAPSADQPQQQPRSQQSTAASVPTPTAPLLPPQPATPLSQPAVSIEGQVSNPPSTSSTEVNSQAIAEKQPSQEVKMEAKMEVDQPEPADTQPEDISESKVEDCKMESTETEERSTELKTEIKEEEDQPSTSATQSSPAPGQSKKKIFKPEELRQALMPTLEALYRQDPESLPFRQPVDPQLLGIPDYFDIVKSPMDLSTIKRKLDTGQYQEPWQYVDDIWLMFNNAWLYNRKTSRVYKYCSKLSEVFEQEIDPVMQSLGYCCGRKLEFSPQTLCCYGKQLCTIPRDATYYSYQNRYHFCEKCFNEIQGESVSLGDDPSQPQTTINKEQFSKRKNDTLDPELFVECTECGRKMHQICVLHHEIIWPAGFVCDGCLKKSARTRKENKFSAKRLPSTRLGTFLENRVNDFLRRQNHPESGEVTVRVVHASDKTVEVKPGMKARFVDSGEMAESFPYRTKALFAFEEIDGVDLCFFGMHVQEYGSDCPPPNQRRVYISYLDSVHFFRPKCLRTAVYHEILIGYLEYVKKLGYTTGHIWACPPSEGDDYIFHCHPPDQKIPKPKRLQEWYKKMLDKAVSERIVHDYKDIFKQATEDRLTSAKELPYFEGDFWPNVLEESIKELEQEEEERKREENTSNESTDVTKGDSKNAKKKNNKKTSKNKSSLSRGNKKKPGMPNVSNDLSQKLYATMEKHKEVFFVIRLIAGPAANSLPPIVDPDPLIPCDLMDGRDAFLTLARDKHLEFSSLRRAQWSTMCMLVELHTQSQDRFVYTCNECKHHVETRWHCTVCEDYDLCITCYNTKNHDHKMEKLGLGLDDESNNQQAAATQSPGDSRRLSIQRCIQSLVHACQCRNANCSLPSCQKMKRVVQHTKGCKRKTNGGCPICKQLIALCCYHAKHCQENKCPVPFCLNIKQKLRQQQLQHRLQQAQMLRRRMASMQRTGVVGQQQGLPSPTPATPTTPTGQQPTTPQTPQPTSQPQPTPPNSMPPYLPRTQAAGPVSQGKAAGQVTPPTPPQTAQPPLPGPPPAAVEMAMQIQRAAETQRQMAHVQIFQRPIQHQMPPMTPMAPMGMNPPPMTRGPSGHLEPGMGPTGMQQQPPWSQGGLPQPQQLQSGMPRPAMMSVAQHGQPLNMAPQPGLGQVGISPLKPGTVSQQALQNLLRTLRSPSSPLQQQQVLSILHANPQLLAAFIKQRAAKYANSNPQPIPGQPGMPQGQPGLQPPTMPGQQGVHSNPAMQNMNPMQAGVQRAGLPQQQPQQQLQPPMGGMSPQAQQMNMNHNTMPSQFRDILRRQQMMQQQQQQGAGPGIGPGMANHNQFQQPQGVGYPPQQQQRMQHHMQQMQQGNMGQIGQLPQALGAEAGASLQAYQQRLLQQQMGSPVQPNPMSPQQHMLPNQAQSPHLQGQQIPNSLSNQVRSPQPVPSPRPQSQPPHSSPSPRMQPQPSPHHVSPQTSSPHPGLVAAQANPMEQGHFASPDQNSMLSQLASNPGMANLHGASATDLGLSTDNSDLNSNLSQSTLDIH

E1AΔ2-36, a p300 binding-defective mutant
cyclin D1 promoter CD1 (-1745/+134) luciferase activity with SENP1 (PC-3 cells): 38%
